Measured values as given in article PMC9253567, “The Role of ZAP and TRIM25 RNA Binding in Restricting Viral Translation” (Frontiers in Cellular and Infection Microbiology, 2022).

B1: FLAG-tagged ZAPL C88R (ZnF 2 mutant) (natural protein, human, UniProt Q7Z2W4-1 1-902, looked up)
chain: MADPEVCCFITKILCAHGGRMALDALLQEIALSEPQLCEVLQVAGPDRFVVLETGGEAGITRSVVATTRARVCRRKYCQRPCDNLHLRKLNLLGRCNYSQSERNLCKYSHEVLSEENFKVLKNHELSGLNKEELAVLLLQSDPFFMPEICKSYKGEGRQQICNQQPPCSRLHICDHFTRGNCRFPNCLRSHNLMDRKVLAIMREHGLNPDVVQNIQDICNSKHMQKNPPGPRAPSSHRRNMAYRARSKSRDRFFQGSQEFLASASASAERSCTPSPDQISHRASLEDAPVDDLTRKFTYLGSQDRARPPSGSSKATDLGGTSQAGTSQRFLENGSQEDLLHGNPGSTYLASNSTSAPNWKSLTSWTNDQGARRKTVFSPTLPAARSSLGSLQTPEAVTTRKGTGLLSSDYRIINGKSGTQDIQPGPLFNNNADGVATDITSTRSLNYKSTSSGHREISSPRIQDAGPASRDVQATGRIADDADPRVALVNDSLSDVTSTTSSRVDDHDSEEICLDHLCKGCPLNGSCSKVHFHLPYRWQMLIGKTWTDFEHMETIEKGYCNPGIHLCSVGSYTINFRVMSCDSFPIRRLSTPSSVTKPANSVFTTKWIWYWKNESGTWIQYGEEKDKRKNSNVDSSYLESLYQSCPRGVVPFQAGSRNYELSFQGMIQTNIASKTQKDVIRRPTFVPQWYVQQMKRGPDHQPAKTSSVSLTATFRPQEDFCFLSSKKYKLSEIHHLHPEYVRVSEHFKASMKNFKIEKIKKIENSELLDKFTWKKSQMKEEGKLLFYATSRAYVESICSNNFDSFLHETHENKYGKGIYFAKDAIYSHKNCPYDAKNVVMFVAQVLVGKFTEGNITYTSPPPQFDSCVDTRSNPSVFVIFQKDQVYPQYVIEYTEDKACVIS
notes: zinc finger antiviral protein (ZAP), long isoform ZAPL, cloned from pTRIP-TagRFP-hZAPL; source: ZAP KO 293T cells, transfected (pcDNA3.1-3XFLAG), in lysate; not shown: 3XFLAG, N-terminal, kept
B2: FLAG-tagged ZAPL E148A/K151A/R170A (natural protein, human, UniProt Q7Z2W4-1 1-902, looked up)
chain: MADPEVCCFITKILCAHGGRMALDALLQEIALSEPQLCEVLQVAGPDRFVVLETGGEAGITRSVVATTRARVCRRKYCQRPCDNLHLCKLNLLGRCNYSQSERNLCKYSHEVLSEENFKVLKNHELSGLNKEELAVLLLQSDPFFMPAICASYKGEGRQQICNQQPPCSALHICDHFTRGNCRFPNCLRSHNLMDRKVLAIMREHGLNPDVVQNIQDICNSKHMQKNPPGPRAPSSHRRNMAYRARSKSRDRFFQGSQEFLASASASAERSCTPSPDQISHRASLEDAPVDDLTRKFTYLGSQDRARPPSGSSKATDLGGTSQAGTSQRFLENGSQEDLLHGNPGSTYLASNSTSAPNWKSLTSWTNDQGARRKTVFSPTLPAARSSLGSLQTPEAVTTRKGTGLLSSDYRIINGKSGTQDIQPGPLFNNNADGVATDITSTRSLNYKSTSSGHREISSPRIQDAGPASRDVQATGRIADDADPRVALVNDSLSDVTSTTSSRVDDHDSEEICLDHLCKGCPLNGSCSKVHFHLPYRWQMLIGKTWTDFEHMETIEKGYCNPGIHLCSVGSYTINFRVMSCDSFPIRRLSTPSSVTKPANSVFTTKWIWYWKNESGTWIQYGEEKDKRKNSNVDSSYLESLYQSCPRGVVPFQAGSRNYELSFQGMIQTNIASKTQKDVIRRPTFVPQWYVQQMKRGPDHQPAKTSSVSLTATFRPQEDFCFLSSKKYKLSEIHHLHPEYVRVSEHFKASMKNFKIEKIKKIENSELLDKFTWKKSQMKEEGKLLFYATSRAYVESICSNNFDSFLHETHENKYGKGIYFAKDAIYSHKNCPYDAKNVVMFVAQVLVGKFTEGNITYTSPPPQFDSCVDTRSNPSVFVIFQKDQVYPQYVIEYTEDKACVIS
notes: zinc finger antiviral protein (ZAP), long isoform ZAPL, cloned from pTRIP-TagRFP-hZAPL; also called ZAPL EKR; EKR; source: ZAP KO 293T cells, transfected (pcDNA3.1-3XFLAG), in lysate; not shown: 3XFLAG, N-terminal, kept
B3: FLAG-tagged ZAPL K107A/Y108A (natural protein, human, UniProt Q7Z2W4-1 1-902, looked up)
chain: MADPEVCCFITKILCAHGGRMALDALLQEIALSEPQLCEVLQVAGPDRFVVLETGGEAGITRSVVATTRARVCRRKYCQRPCDNLHLCKLNLLGRCNYSQSERNLCAASHEVLSEENFKVLKNHELSGLNKEELAVLLLQSDPFFMPEICKSYKGEGRQQICNQQPPCSRLHICDHFTRGNCRFPNCLRSHNLMDRKVLAIMREHGLNPDVVQNIQDICNSKHMQKNPPGPRAPSSHRRNMAYRARSKSRDRFFQGSQEFLASASASAERSCTPSPDQISHRASLEDAPVDDLTRKFTYLGSQDRARPPSGSSKATDLGGTSQAGTSQRFLENGSQEDLLHGNPGSTYLASNSTSAPNWKSLTSWTNDQGARRKTVFSPTLPAARSSLGSLQTPEAVTTRKGTGLLSSDYRIINGKSGTQDIQPGPLFNNNADGVATDITSTRSLNYKSTSSGHREISSPRIQDAGPASRDVQATGRIADDADPRVALVNDSLSDVTSTTSSRVDDHDSEEICLDHLCKGCPLNGSCSKVHFHLPYRWQMLIGKTWTDFEHMETIEKGYCNPGIHLCSVGSYTINFRVMSCDSFPIRRLSTPSSVTKPANSVFTTKWIWYWKNESGTWIQYGEEKDKRKNSNVDSSYLESLYQSCPRGVVPFQAGSRNYELSFQGMIQTNIASKTQKDVIRRPTFVPQWYVQQMKRGPDHQPAKTSSVSLTATFRPQEDFCFLSSKKYKLSEIHHLHPEYVRVSEHFKASMKNFKIEKIKKIENSELLDKFTWKKSQMKEEGKLLFYATSRAYVESICSNNFDSFLHETHENKYGKGIYFAKDAIYSHKNCPYDAKNVVMFVAQVLVGKFTEGNITYTSPPPQFDSCVDTRSNPSVFVIFQKDQVYPQYVIEYTEDKACVIS
notes: zinc finger antiviral protein (ZAP), long isoform ZAPL, cloned from pTRIP-TagRFP-hZAPL; also called ZAPL KY; KY; source: ZAP KO 293T cells, transfected (pcDNA3.1-3XFLAG), in lysate; not shown: 3XFLAG, N-terminal, kept
B4: FLAG-tagged ZAPL V72A/Y108A/F144A (natural protein, human, UniProt Q7Z2W4-1 1-902, looked up)
chain: MADPEVCCFITKILCAHGGRMALDALLQEIALSEPQLCEVLQVAGPDRFVVLETGGEAGITRSVVATTRARACRRKYCQRPCDNLHLCKLNLLGRCNYSQSERNLCKASHEVLSEENFKVLKNHELSGLNKEELAVLLLQSDPAFMPEICKSYKGEGRQQICNQQPPCSRLHICDHFTRGNCRFPNCLRSHNLMDRKVLAIMREHGLNPDVVQNIQDICNSKHMQKNPPGPRAPSSHRRNMAYRARSKSRDRFFQGSQEFLASASASAERSCTPSPDQISHRASLEDAPVDDLTRKFTYLGSQDRARPPSGSSKATDLGGTSQAGTSQRFLENGSQEDLLHGNPGSTYLASNSTSAPNWKSLTSWTNDQGARRKTVFSPTLPAARSSLGSLQTPEAVTTRKGTGLLSSDYRIINGKSGTQDIQPGPLFNNNADGVATDITSTRSLNYKSTSSGHREISSPRIQDAGPASRDVQATGRIADDADPRVALVNDSLSDVTSTTSSRVDDHDSEEICLDHLCKGCPLNGSCSKVHFHLPYRWQMLIGKTWTDFEHMETIEKGYCNPGIHLCSVGSYTINFRVMSCDSFPIRRLSTPSSVTKPANSVFTTKWIWYWKNESGTWIQYGEEKDKRKNSNVDSSYLESLYQSCPRGVVPFQAGSRNYELSFQGMIQTNIASKTQKDVIRRPTFVPQWYVQQMKRGPDHQPAKTSSVSLTATFRPQEDFCFLSSKKYKLSEIHHLHPEYVRVSEHFKASMKNFKIEKIKKIENSELLDKFTWKKSQMKEEGKLLFYATSRAYVESICSNNFDSFLHETHENKYGKGIYFAKDAIYSHKNCPYDAKNVVMFVAQVLVGKFTEGNITYTSPPPQFDSCVDTRSNPSVFVIFQKDQVYPQYVIEYTEDKACVIS
notes: zinc finger antiviral protein (ZAP), long isoform ZAPL, cloned from pTRIP-TagRFP-hZAPL; also called ZAPL VYF; VYF; source: ZAP KO 293T cells, transfected (pcDNA3.1-3XFLAG), in lysate; not shown: 3XFLAG, N-terminal, kept
B5: FLAG-tagged ZAPL H176A/F184A/R189A (natural protein, human, UniProt Q7Z2W4-1 1-902, looked up)
chain: MADPEVCCFITKILCAHGGRMALDALLQEIALSEPQLCEVLQVAGPDRFVVLETGGEAGITRSVVATTRARVCRRKYCQRPCDNLHLCKLNLLGRCNYSQSERNLCKYSHEVLSEENFKVLKNHELSGLNKEELAVLLLQSDPFFMPEICKSYKGEGRQQICNQQPPCSRLHICDAFTRGNCRAPNCLASHNLMDRKVLAIMREHGLNPDVVQNIQDICNSKHMQKNPPGPRAPSSHRRNMAYRARSKSRDRFFQGSQEFLASASASAERSCTPSPDQISHRASLEDAPVDDLTRKFTYLGSQDRARPPSGSSKATDLGGTSQAGTSQRFLENGSQEDLLHGNPGSTYLASNSTSAPNWKSLTSWTNDQGARRKTVFSPTLPAARSSLGSLQTPEAVTTRKGTGLLSSDYRIINGKSGTQDIQPGPLFNNNADGVATDITSTRSLNYKSTSSGHREISSPRIQDAGPASRDVQATGRIADDADPRVALVNDSLSDVTSTTSSRVDDHDSEEICLDHLCKGCPLNGSCSKVHFHLPYRWQMLIGKTWTDFEHMETIEKGYCNPGIHLCSVGSYTINFRVMSCDSFPIRRLSTPSSVTKPANSVFTTKWIWYWKNESGTWIQYGEEKDKRKNSNVDSSYLESLYQSCPRGVVPFQAGSRNYELSFQGMIQTNIASKTQKDVIRRPTFVPQWYVQQMKRGPDHQPAKTSSVSLTATFRPQEDFCFLSSKKYKLSEIHHLHPEYVRVSEHFKASMKNFKIEKIKKIENSELLDKFTWKKSQMKEEGKLLFYATSRAYVESICSNNFDSFLHETHENKYGKGIYFAKDAIYSHKNCPYDAKNVVMFVAQVLVGKFTEGNITYTSPPPQFDSCVDTRSNPSVFVIFQKDQVYPQYVIEYTEDKACVIS
notes: zinc finger antiviral protein (ZAP), long isoform ZAPL, cloned from pTRIP-TagRFP-hZAPL; also called ZAPL HFR; HFR; source: ZAP KO 293T cells, transfected (pcDNA3.1-3XFLAG), in lysate; not shown: 3XFLAG, N-terminal, kept
B6: FLAG-tagged ZAPS H191R (ZnF 4 mutant) (natural protein, human, UniProt Q7Z2W4-2 1-699, looked up)
chain: MADPEVCCFITKILCAHGGRMALDALLQEIALSEPQLCEVLQVAGPDRFVVLETGGEAGITRSVVATTRARVCRRKYCQRPCDNLHLCKLNLLGRCNYSQSERNLCKYSHEVLSEENFKVLKNHELSGLNKEELAVLLLQSDPFFMPEICKSYKGEGRQQICNQQPPCSRLHICDHFTRGNCRFPNCLRSRNLMDRKVLAIMREHGLNPDVVQNIQDICNSKHMQKNPPGPRAPSSHRRNMAYRARSKSRDRFFQGSQEFLASASASAERSCTPSPDQISHRASLEDAPVDDLTRKFTYLGSQDRARPPSGSSKATDLGGTSQAGTSQRFLENGSQEDLLHGNPGSTYLASNSTSAPNWKSLTSWTNDQGARRKTVFSPTLPAARSSLGSLQTPEAVTTRKGTGLLSSDYRIINGKSGTQDIQPGPLFNNNADGVATDITSTRSLNYKSTSSGHREISSPRIQDAGPASRDVQATGRIADDADPRVALVNDSLSDVTSTTSSRVDDHDSEEICLDHLCKGCPLNGSCSKVHFHLPYRWQMLIGKTWTDFEHMETIEKGYCNPGIHLCSVGSYTINFRVMSCDSFPIRRLSTPSSVTKPANSVFTTKWIWYWKNESGTWIQYGEEKDKRKNSNVDSSYLESLYQSCPRGVVPFQAGSRNYELSFQGMIQTNIASKTQKDVIRRPTFVPQWYVQQMKRGPE
notes: zinc finger antiviral protein (ZAP), short isoform ZAPS, cloned from pTRIP-TagRFP-hZAPS; source: ZAP KO 293T cells, transfected (pcDNA3.1-3XFLAG), in lysate; not shown: 3XFLAG, N-terminal, kept

Columns and labels:
[1] = biological target: T1, myc-tagged TRIM25 WT (tripartite motif-containing protein 25) (UniProt Q14258 1-630); assay: cell-based or functional assay
T1 sequence (Q14258 whole entry): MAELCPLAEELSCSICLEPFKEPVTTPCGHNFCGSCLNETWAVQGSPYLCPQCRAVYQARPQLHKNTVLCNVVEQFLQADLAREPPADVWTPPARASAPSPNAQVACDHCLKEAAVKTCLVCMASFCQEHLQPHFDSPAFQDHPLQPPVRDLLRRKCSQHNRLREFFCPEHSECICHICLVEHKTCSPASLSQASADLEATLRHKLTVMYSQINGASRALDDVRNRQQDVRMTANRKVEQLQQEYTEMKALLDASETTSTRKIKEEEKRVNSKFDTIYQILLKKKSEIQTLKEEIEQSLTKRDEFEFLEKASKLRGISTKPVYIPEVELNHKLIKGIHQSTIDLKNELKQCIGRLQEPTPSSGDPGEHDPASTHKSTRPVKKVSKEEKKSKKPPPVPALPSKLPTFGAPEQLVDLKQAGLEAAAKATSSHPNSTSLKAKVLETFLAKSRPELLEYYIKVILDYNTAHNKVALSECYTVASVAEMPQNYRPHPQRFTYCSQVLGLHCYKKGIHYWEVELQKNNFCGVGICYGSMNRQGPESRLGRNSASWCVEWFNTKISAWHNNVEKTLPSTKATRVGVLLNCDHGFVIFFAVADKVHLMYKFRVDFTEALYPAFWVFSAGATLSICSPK

[2] = biological target: T1, myc-tagged TRIM25 WT (tripartite …); assay: co-IP; myc IP (anti-myc beads) of myc-TRIM25 WT from lysates of ZAP KO 293T cells co-transfected with FLAG-ZAPS or FLAG-ZAPL WT or mutants; FLAG-ZAP detected by immunoblot; FLAG IP buffer (100 mM Tris-HCl 8.0, 150 mM NaCl, 5 mM EDTA, 1 mM DTT, 5% glycerol, 0.1% NP-40), 4°C, 45 min; FLAG IP band divided by myc IP band (ImageJ); details: partners not purified

Binder | JEV translation inhibition: fold inhibition of Renilla luciferase from a replication-defective JEV replicon, relative to empty plasmid, ZAP KO 293T cells, 4 h after replicon transfection [1] | ZAP-TRIM25 interaction (co-IP, FLAG-ZAP band over myc-TRIM25 band, ImageJ) [2]
B1 | 5.19 fold inhibition relative to empty plasmid transfection | 1.13
B2 | – | 0.196
B3 | – | 0.086
B4 | – | 0.574
B5 | – | 0.03
B6 | 2.18 fold inhibition relative to empty plasmid transfection | 1.05
